The source of these data is patent US20030073808.

The test system of data set [1] is ChePep-6 (AFTA combined with a peptide having SEQ ID No. 8).
The subject of data set [2] is ChePep-2 (IDA coupled with a peptide having SEQ ID No. 5).
The subject of data set [3] is ChePep-1 (PSDE coupled with the peptide having SEQ ID No. 4).
For data set [4], the system named is ChePep-5 (AFTA combined with a peptide having SEQ ID No. 7).
Data set [5] concerns ChePep-3 (PSDE combined with a peptide having SEQ ID No. 6).

As to Active MMP-9 enzyme, the “FRET substrate peptide cleavage by MMP-9” value in data set [1] is “ChePep-6 is an effective MMP-9 regulator at low molar stoichiometries”; in data set [2], “regulates MMP-9 in the fluorescence resonance energy transfer (FRET) assay in a dose dependent manner”; in data set [4], “ChePep-5 proves to be a better regulator than the IDA or the PSDE based chelating peptides”; in data set [5] it was “show nearly identical ability to regulate MMP-9 in the standard FRET assay”. Besides, the “hydrolysis of fluoresceinated collagen by MMP-9” value in data set [3] is “prevents the enzyme from degrading fluoresceinated collagen in a dose dependent manner”.
